In the supplement of paper PMC12764529:
± gives the half width of the 95% confidence interval.

Tests used:
[1] = folding stability dG unfold from trypsin proteolysis; higher = more stable
Summary of the method: (§1)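 Mini-proteins designed to be under 80 residues and free of cysteine were carried in a PA-tagged cDNA display construct and digested with trypsin and with chymotrypsin. Each protease was applied at 11 threefold-diluted concentrations, alongside a no-protease condition, before sequencing. K50 came from Bayesian fitting of the sequencing counts, and unfolding free energy was obtained by comparing it with a sequence-predicted unfolded-state K50 and a shared folded-state K50, for each protease separately or for both together. Designs were retained only if their AlphaFold2 dimer inter-PAE exceeded 15.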

[2] = folding stability dG unfold from chymotrypsin proteolysis; higher = more stable
Summary of the method: as §1

[3] = folding stability dG unfold (combined trypsin and chymotrypsin); higher = more stable
Summary of the method: as §1

Sequence	folding stability dG unfold [1] [kcal/mol]	folding stability dG unfold [2] [kcal/mol]	folding stability dG unfold [3] [kcal/mol]
SAGGSAGGSAGGPILKITLELSPEEIEELAKALGLKVKKVEKEKNKDGKLRVTIYIELKSAGGSAGGSAGGS [r10_999_TrROS_Hall]	2.12 ± 0.085	3.24 ± 0.057	2.81 ± 0.078
SAGKTVTKTKTEYEYKDGKLEKKKVKTETIEPKPKIEVKEVKITLKDGSEVTAKIVSIDPKTKKVVIELSAG [r5_735_TrROS_Hall]	0.26 ± 0.099	-0.0238 ± 0.075	0.0452 ± 0.23
SAGGSAGGSAGGKKKYIVVKVKVEVDENGNVTITLPNGKKITIPKEKVEVKPDGYLVIKLSAGGSAGGSAGG [r7_684_TrROS_Hall]	1.98 ± 0.07	2.05 ± 0.028	2.05 ± 0.087
SAGGVWIEITFLMPAEQLLNFIKNLAEEFGYQVNIDVKIQPYPNGPMVTHEIEIKPLPPKVPEEDQESAGGS [r16_262_TrROS]	2.5 ± 0.13	3.99 ± 0.1	3.6 ± 0.16
SAGGSAMDPSKLVRKKVRFRVVDPNGKPLGEIDIEVEFPGGVSEEEAEELLRELIAALAPPAGVEGSAGGSA [r15_310_TrMRF]	1.52 ± 0.022	3.023 ± 0.023	2.73 ± 0.071
SAGGSAGGKEFKIVKVEIEEREDGRLKIHITVEPGATPEEVKKALEELGFEVEEVEVVEVEEEESAGGSAGG [r6_543_TrROS_Hall]	1.93 ± 0.086	2.368 ± 0.023	2.24 ± 0.092
SAGPNLENLEIVEIKAEVLPDNSVIVPLKVRNDNGEEEEVWGRVGNGIVTLTYPNGFPAVAFIPPSAFSAGG [r19_84_TrMRF]	0.683 ± 0.033	0.576 ± 0.089	0.651 ± 0.051
SAGGSAGGSAGGSKIYKLKVNGSVEKLIENLKKAGFKVEILSVYYDPETKELYVLFKISSAGGSAGGSAGGS [r4_315_TrMRF]	3.85 ± 0.1	4.57 ± 0.068	4.32 ± 0.079
SAGGSAGGSAGMKVVVELEVTFDSEEEAEAVAKAIAEELGSEDVVVKVIRKPVELGPGLKSAGGSAGGSAGG [r17_285_JUSTAS]	0.0891 ± 0.061	0.891 ± 0.031	0.656 ± 0.051
SAGGKKVIVIEGLTEEEILEKIKEEFPEPVEVIIRRPDGYVVKITVDAKTREIKKVEVVKVPPPEKPSAGGS [r8_225_TrROS_Hall]	1.57 ± 0.15	2.01 ± 0.16	1.79 ± 0.29
SAGMSMSVSVTKDPNSNSITIKVTMPVEPDAVLDLPIKVEVPEKEYEMTVEVTLSPDGLASMTGTITLPSAG [r5_596_JUSTAS]	2.74 ± 0.15	2.04 ± 0.056	2.41 ± 0.18
SAGGMEVTFPVSPDLSPEEVRARIEAEIRPIAEARGAVDVEVPIVEYRRLPPDSVEFRFKVTVRFPRSAGGS [r8_184_JUSTAS]	1.94 ± 0.089	2.4 ± 0.052	2.33 ± 0.11
SAGATPTTLSFTDPEGKKIANVTVTVLPGGRQEASITNSDSNESYTAEYDPATGTWTLTFPDGTTLTVGSAG [r5_809_JUSTAS]	1.15 ± 0.039	1.75 ± 0.032	1.58 ± 0.059
SAGVDGVKWNPESNEVSVEYEVNNQRVEQYIEPKPIPPVIVIPIDDIAERNPGLKDDLDENPGDWLVFPSAG [r5_958_TrROS]	0.79 ± 0.077	-0.332 ± 0.089	0.415 ± 0.09
SAGGSAGGSAGEVEIEITKVTENEDGSETLEMTIRDKDTGKTYKLTFNKDNGILTLEEEPSAGGSAGGSAGG [r11_991_TrROS_Hall]	1.93 ± 0.13	3.05 ± 0.097	2.43 ± 0.2
SAGPLTVTVEGDTLTVTVPLTDVPADATVRVTVTVGDKTEEYTVPPSESITVTVPSSAVEVTVERLPPASAG [r5_867_JUSTAS]	2.09 ± 0.085	2.44 ± 0.082	2.36 ± 0.12
SAGMAEKIKAELEKKGYKYEIEEVKDPNNDKTYLIVKIYPKDGKEYIIIFDKEKGEVIKKIPSDEPNILSAG [r5_938_JUSTAS]	1.49 ± 0.13	1.59 ± 0.14	1.64 ± 0.24
SAGGSAGGSKGPMITITLFILVRPDDGKYYATVIEMYIYPNGGIDIEMEMIPADDIPPGDIVISAGGSAGGS [r12_38_TrROS]	2.94 ± 0.17	4.74 ± 0.15	4.55 ± 0.22
SAGGSAGGSPVPVKVVVKLPSSDKTIELTLYPPDVSPDSVVTVDLGGPAIDVKLLPGDVLELSPSAGGSAGG [r6_461_JUSTAS]	0.114 ± 0.034	0.524 ± 0.039	0.323 ± 0.097
SAGGNRIMFIVNSPEEAERFANFIRKHLPPGMNLEIEIEPFPLKDNVPPDDPDYKNQPVYMVHITIPSAGGS [r16_795_TrROS]	3 ± 0.096	4.13 ± 0.12	3.73 ± 0.2
SAGGSMTISLDETIDVPEDVGVTFTFADDTVATAYFDPSEGKVRVVVYDPNKPGTLLGEFTLPVLPSAGGSA [r2_266_TrMRF]	0.976 ± 0.017	1.41 ± 0.07	1.29 ± 0.11

Sequence	folding stability dG unfold [1] [kcal/mol]	folding stability dG unfold [2] [kcal/mol]	folding stability dG unfold [3] [kcal/mol]
SAGGSAGGSAGEVEFELTVKLTVTHPSGGKSEIEVPVKITLPVVDISKEILESNPEVVKKANSAGGSAGGSA [r18_114_TrMRF]	0.486 ± 0.11	-0.964 ± 0.33	-0.108 ± 0.3
SNPISAVVPSPGGRYVLVVEYKDGSVEVYEFEGLSTAEEAKERALALLKESTEGEPREITRVVVLPAPPGSA [r9_1135_TrMRF]	4.3 ± 0.17	4.3 ± 0.051	4.33 ± 0.11
SAGGMELPPEVKTIAEKLEAEGYDVLAVPVGDSYVIAVDGKVAATPEEFEKLKKIPGVKKLITIDLPSAGGS [r16_275_TrMRF]	0.432 ± 0.056	0.583 ± 0.049	0.541 ± 0.13
SAGGSAGGSAGGMKIKTITGDPSTGVYTITFPDGKVETIPMTQEEVEALAKENPGIEITLSAGGSAGGSAGG [r7_175_JUSTAS]	0.899 ± 0.035	2.81 ± 0.049	2.46 ± 0.097
SAGGSAGGSPVLIPVKTPEEIKKFLEKASSDAKFKVFNNKGEWKEVSKNEISVTPEEQFILVYSAGGSAGGS [r12_907_TrMRF]	0.437 ± 0.048	0.662 ± 0.14	0.578 ± 0.068
SAGGSAGGSAGGSFKVTYFPGEKLLAVTFPDGSKKIFKIDDKGNPTIIAVIDPDKGKVLPSAGGSAGGSAGG [r7_659_TrMRF]	1.86 ± 0.034	2.622 ± 0.02	2.35 ± 0.051
SAPPLPPETITLTLTIDGYEITVTLTRLPDGTVKLTVTVTLPDGTTVTITMYFDAKTNKWYITKIEITPPSA [r9_795_TrROS_Hall]	4.04 ± 0.48	5.19 ± 0.12	5.26 ± 0.33
SAGGSAGGMTTVTYDPSTGVTTVLTPKTDPTSDETSVVTTTVTLPTSPSGGGGTATTTTTTTASSAGGSAGG [r6_952_JUSTAS]	0.74 ± 0.051	1.39 ± 0.024	1.18 ± 0.045
SAGMIEITVEVPAEDMTEEELKELAEELARALREAGLPEDVKIVDVRVERLPDGTVRVTIKIEVKPPPSAGG [r19_87_TrROS_Hall]	4.24 ± 0.26	3.59 ± 0.44	4.36 ± 0.39
SAGGSAGGMVTFTVEYESDPALLEKLKEELPGVEILEVKREGPKKTITITIKVPSEEKAKKFLSSAGGSAGG [r6_334_JUSTAS]	0.704 ± 0.086	1.16 ± 0.11	1 ± 0.12
SAGGKIKIKSVEVQPNPDGMRKVTLEFQDGGKEHKVEIYVHPGGIMISIPNGKTRTIPWDDLDDIKLSAGGS [r16_593_TrROS]	0.52 ± 0.093	1.22 ± 0.15	1.01 ± 0.18
SAGGSAGGSAMRLRLKVKPGEKVRIRVERDGKVYEFEVTVEEGADEIEIDLPPGVKRIEIEPSAGGSAGGSA [r18_124_TrROS_Hall]	2.76 ± 0.21	3.8 ± 0.095	3.62 ± 0.17
SKPIPVKITIETKTNPNGEPITTITIDKGDKTYSLPLGNAKILEIDPEKQYIIIYNPETGSILILKPSDLSA [r9_1186_TrMRF]	2.54 ± 0.059	3.14 ± 0.06	2.95 ± 0.058
SAGGMIVIEKEEDGFYRITIRNKETGEEVEEIPISKEELEELLKEAEENMSLEEIAEKLGLEIEIEKVSAGG [r13_836_TrROS_Hall]	1.68 ± 0.047	0.971 ± 0.023	1.27 ± 0.12
SAGMKITLPKGVKSIKVEEVNGKKVIYIEVDGKIFVYDLKTGKLYIYDKKTGEKKEITIKKGDTITLKSAGG [r19_138_TrROS_Hall]	1.03 ± 0.028	1.79 ± 0.067	1.55 ± 0.07
SAGGSAGGSAGMPEVEVEVKIIKFDKEKNVFVIEVTDKKTGKRVTLTIKNGKIELKVEEPSAGGSAGGSAGG [r17_370_TrROS_Hall]	2.85 ± 0.098	4.06 ± 0.089	3.7 ± 0.19
SAGGSALPEDATVKVEVTVVTLVYDPETGGFYLKVAKVEKEIRFDPKNGKLEVKVKKVEVKVFKLGSAGGSA [r15_517_TrMRF]	2.96 ± 0.21	4.41 ± 0.17	4.19 ± 0.33
DVVIDIDELKKAIEKAKPGEVLELTVKVKDKATGKEYTVRVTVTVNPDGKTVTVTVVNEETGEVIETITLPS [r1_165_TrROS_Hall]	3.94 ± 0.21	5.23 ± 0.22	> 6
SAGGSAGGSAGGEPEVKVELRVELDEDGRLRVTLKVEFEDGTVERELELEAPVVFFPPEESAGGSAGGSAGG [r7_992_TrROS_Hall]	2.73 ± 0.18	2.07 ± 0.093	2.49 ± 0.16
SAGGSAGGSAGGSTILILDPETKKLYLIRIEKREDGKEELKLKVYEFDLKTGEMKEYELSAGGSAGGSAGGS [r10_1041_TrROS_Hall]	3.25 ± 0.2	4.68 ± 0.19	4.15 ± 0.19
